Laboratory results taken from paper PMC6838200, “Polarisome scaffolder Spa2-mediated macromolecular condensation of Aip5 for actin polymerization” (Nature Communications, 2019).
Values belong to the binder of their own block, whether it stands above or below them.

What was measured:
[1] = target: G-actin (monomeric actin used in microscale thermophoresis) (rabbit, UniProt P68135 1-377); assay: MST; 2 µM G-actin mixed 1:1 with Aip5 loop peptide (highest stock 2 mM); G-buffer with 0.05% Tween 20; 25 °C; Kd mode fit; details: both partners purified
[2] = target: the molecule itself; assay: crystal structure; X-ray; sitting drop vapor diffusion at 20 °C; Aip5-C by SeMet-MAD, Aip5-C-3m by molecular replacement

Kd [1]: 99 ± 76 µM
B1: Aip5 loop peptide (TSLAGGGFHM) (peptide)
peptide: TSLAGGGFHM
notes: also called loop containing peptide; peptides of Aip5 loop

B2: Aip5-C-3m (L1150A, N1162A, S1165C) (domain or fragment, S. cerevisiae, UniProt P43597 1110-1233, looked up)
chain: DSTTQTTEQSKKNNDKPQDVITTSEIRKLNEKEPVYIYTSAAGGGFHMIPRTARLCTILTANRIPFTYRDLGTDDEARKVWKTFSKGRSLPGVVRGHNDLIGNWEEIEEANEDYKLRELIYDTI
notes: Aip5 (YFR016C), budding yeast, residues 1110-1233 with three point mutations; Homodimer in the crystal; also called triple mutant Aip5-C-3m; source: E. coli BL21 (DE3), purified
binding result [2]: binds
